Laboratory results from US20250179160A1 (OMEROS, published 2025).
Read-outs that look alike come from different tables or passages of the source. Each block holds one binder with its values, some of them ahead of it.

What was measured:
[1] = target: T1, recombinant human Pro-Factor D-His (human, UniProt P00746 20-253); assay: ELISA: antibody titrated from 3 ug/ml on 1 ug/ml plate-immobilized His-tagged Factor D; labeled goat anti-mouse IgG Fc; OD450
T1 construct: also called recombinant human Pro-CFD-His; not shown: His tag

[2] = target: T2, recombinant human mature Factor D-His (human, UniProt P00746 26-253); assay: as above
T2 construct: also called recombinant human mature CFD-His; not shown: His tag

[3] = target: T3, recombinant human Pro-Factor D (human, UniProt P00746 20-253); assay: ELISA: antibody titrated 3-fold from 3 ug/ml on plate coated with 1 ug/ml recombinant human pro-Factor D; HRP anti-mouse, rat or human secondary; OD450
T3 construct: also used for the endogenous pro-Factor D detected in 3MC patient serum; also called pro CFD; hPro-CFD

[4] = target: T3, recombinant human Pro-Factor D; assay: sandwich ELISA: coat 21H1 (human IgG4) 1 ug/ml, recombinant human pro-Factor D spiked into diluent and titrated, detection biotin goat polyclonal BAF1824 and HRP-streptavidin; OD450
Procedure: Controls of no additional Factor D in sera were treated similarly (unspiked). Assay wells were incubated for 1 hour at room temperature then washed three times with PBST. […] After incubation and washing, HRP-tagged Streptavidin was added, incubated, and washed, followed by TMB substrate.

[5] = target: T4, recombinant human mature Factor D (human, UniProt P00746 26-253); assay: ELISA: antibody titrated 3-fold from 3 ug/ml on plate coated with 1 ug/ml recombinant human mature Factor D; HRP anti-mouse, rat or human secondary; OD450
T4 construct: also called mature CFD; hCFD

[6] = target: T1, recombinant human Pro-Factor D-His; assay: ELISA: antibody titrated from 3 ug/ml on 1 ug/ml plate-immobilized His-tagged Factor D; labeled goat anti-mouse IgG Fc; OD450; remark: listed apart in the source
Procedure: (§1) The candidate antibodies were titrated starting at 3 μg/mL antibody binding to 1 μg/mL plate-immobilized recombinant human mature Factor D-His or recombinant human Pro-Factor D-His proteins. Bound antibodies were detected by a labeled goat polyclonal antibody specific for mouse IgG Fc (Jackson ImmunoResearch).

[7] = target: T2, recombinant human mature Factor D-His; assay: as above; remark: listed apart in the source
Procedure: as §1

EC50 (read off the curve) [1]: ~0.04 mg/L
EC50 (read off the curve) [2]: ~0.06 mg/L
B1: 3C5, recombinant purified, mouse IgG2a Fc (antibody)
heavy: EVKLVESGGGLVQPGGSLKLSCATSGFTFSDYGMAWVRQAPGKGPEWVAFISNLAYSFYYVDIVMGRFTISRENAKNTLYLEMSSLRSEDTAMYYCARVGLYGNFFMDYWGQGTSVTVSSAKTTAPSVYPLAPVCGDTTGSSVTLGCLVKGYFPEPVTLTWNSGSLSSGVHTFPAVLQSDLYTLSSSVTVTSSTWPSQSITCNVAHPASSTKVDKKIEPRGPTIKPCPPCKCPAPNLLGGPSVFIFPPKIKDVLMISLSPIVTCVVVDVSEDDPDVQISWFVNNVEVHTAQTQTHREDYNSTLRVVSALPIQHQDWMSGKEFKCKVNNKDLPAPIERTISKPKGSVRAPQVYVLPPPEEEMTKKQVTLTCMVTDFMPEDIYVEWTNNGKTELNYKNTEPVLDSDGSYFMYSKLRVEKKNWVERNSYSCSVVHEGLHNHHTTKSFSRTPGK
light: DIQMNQSPSSLSASLGDTITITCHASQNINVWLSWYQQKPGNIPELLIYKASNLHTGVPSRFSGNRSGTSFTLTISSLQPEDIGTYFCQQGQSYPLTFGAGTKLELRRADAAPTVSIFPPSSEQLTSGGASVVCFLNNFYPKDINVKWKIDGSERQNGVLNSWTDQDSKDSTYSMSSTLTLTKDEYERHNSYTCEATHKTSTSPIVKSFNRNEC
notes: Mouse IgG2a and mouse kappa constant regions

EC50 (read off the curve) [3]: ~0.02 mg/L
EC50 (read off the curve) [4]: ~0.004 mg/L
binding result [5]: no binding (tested: 3 ug/ml)
B2: 21H1, purified recombinant, human IgG4 Fc (antibody, V domains shown)
VH: DVQLQESGPGLVKPSQSLSLTCTVTGYSITSDYAWNWIRQFPGNKLEWMGYISYSGSTGYSPSLKSRISITRDTSKNQFFLHLNSVTTGDTATYYCARNGAMDYWGQGISVTVSS
VL: DIVLTQSPASLAVSLGQRATISCKASQSVDYDGDSYMNWYQQKPGQPPKLLIYDASTLESGIPARFSGSGSGTDFTLNIHPVEEEDAATYYCQQNYEAPWTFGGGTKLEIKR
notes: Mouse variable regions on human IgG4 (S228P) and human kappa constant regions; also called mAb 21H1; anti-pro Factor D-specific antibody 21H1

EC50 (read off the curve) [6]: ~0.02 mg/L
EC50 (read off the curve) [7]: ~0.04 mg/L
B3: 12H10, recombinant purified, mouse IgG2a Fc (antibody)
heavy: EVQLVESGGGLVQPKGSLKLSCAASGFSFNTYAMNWVRQAPGKGLEWVARIRSKSNNYATYYADSVKDRFTISRDDSESMLYLQMNNLKTEDTAMYYCVRHGYYWYFDVWGTGTTVTVSSAKTTAPSVYPLAPVCGDTTGSSVTLGCLVKGYFPEPVTLTWNSGSLSSGVHTFPAVLQSDLYTLSSSVTVTSSTWPSQSITCNVAHPASSTKVDKKIEPRGPTIKPCPPCKCPAPNLLGGPSVFIFPPKIKDVLMISLSPIVTCVVVDVSEDDPDVQISWFVNNVEVHTAQTQTHREDYNSTLRVVSALPIQHQDWMSGKEFKCKVNNKDLPAPIERTISKPKGSVRAPQVYVLPPPEEEMTKKQVTLTCMVTDFMPEDIYVEWTNNGKTELNYKNTEPVLDSDGSYFMYSKLRVEKKNWVERNSYSCSVVHEGLHNHHTTKSFSRTPGK
light: DVLMTQTPLSLPVSLGDQASISCRSSQSIVHSDGNTYLEWYLQKPGQSPKLLIYRVSNRFSGVPDRFSGSGSGTDFTLKISRVEAEDLGVYYCFQGSHVPYTFGGGTKLEIKRADAAPTVSIFPPSSEQLTSGGASVVCFLNNFYPKDINVKWKIDGSERQNGVLNSWTDQDSKDSTYSMSSTLTLTKDEYERHNSYTCEATHKTSTSPIVKSFNRNEC
notes: as for B1
